Test results taken from US20050142135A1 (published 2005).
Each block holds one binder with its values, some of them ahead of it.

Key:
[1] = biological target: T1, human LH receptor, wild type (human, UniProt P22888 27-699); experiment: 125I-hCG displacement / Scatchard; panels A-C
[2] = biological target: T1, human LH receptor, wild type; experiment: 125I-hCG displacement / Scatchard; panels D-F
FSHR^S18A = biological target: T2, FSHR^S18A (human, UniProt P23945 18-695)
T2 chain: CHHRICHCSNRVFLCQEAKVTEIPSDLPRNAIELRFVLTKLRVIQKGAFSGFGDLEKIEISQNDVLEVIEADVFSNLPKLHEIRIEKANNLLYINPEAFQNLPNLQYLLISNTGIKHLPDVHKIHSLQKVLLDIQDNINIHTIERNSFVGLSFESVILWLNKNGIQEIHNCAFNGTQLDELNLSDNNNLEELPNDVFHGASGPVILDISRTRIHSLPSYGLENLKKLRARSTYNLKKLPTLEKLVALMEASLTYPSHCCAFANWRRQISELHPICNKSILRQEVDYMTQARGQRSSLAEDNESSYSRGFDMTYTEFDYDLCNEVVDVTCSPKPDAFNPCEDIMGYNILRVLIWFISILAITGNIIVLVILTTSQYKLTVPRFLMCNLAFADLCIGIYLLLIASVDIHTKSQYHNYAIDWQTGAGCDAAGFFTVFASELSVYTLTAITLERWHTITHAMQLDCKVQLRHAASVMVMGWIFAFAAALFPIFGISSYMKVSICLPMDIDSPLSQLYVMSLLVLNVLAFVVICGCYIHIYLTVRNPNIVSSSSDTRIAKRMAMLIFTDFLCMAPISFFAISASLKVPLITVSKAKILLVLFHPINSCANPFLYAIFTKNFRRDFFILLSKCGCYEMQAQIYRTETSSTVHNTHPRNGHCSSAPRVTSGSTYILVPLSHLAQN

FSHR^N10A = biological target: T3, FSHR^N10A (human, UniProt P23945 18-695)
T3 chain: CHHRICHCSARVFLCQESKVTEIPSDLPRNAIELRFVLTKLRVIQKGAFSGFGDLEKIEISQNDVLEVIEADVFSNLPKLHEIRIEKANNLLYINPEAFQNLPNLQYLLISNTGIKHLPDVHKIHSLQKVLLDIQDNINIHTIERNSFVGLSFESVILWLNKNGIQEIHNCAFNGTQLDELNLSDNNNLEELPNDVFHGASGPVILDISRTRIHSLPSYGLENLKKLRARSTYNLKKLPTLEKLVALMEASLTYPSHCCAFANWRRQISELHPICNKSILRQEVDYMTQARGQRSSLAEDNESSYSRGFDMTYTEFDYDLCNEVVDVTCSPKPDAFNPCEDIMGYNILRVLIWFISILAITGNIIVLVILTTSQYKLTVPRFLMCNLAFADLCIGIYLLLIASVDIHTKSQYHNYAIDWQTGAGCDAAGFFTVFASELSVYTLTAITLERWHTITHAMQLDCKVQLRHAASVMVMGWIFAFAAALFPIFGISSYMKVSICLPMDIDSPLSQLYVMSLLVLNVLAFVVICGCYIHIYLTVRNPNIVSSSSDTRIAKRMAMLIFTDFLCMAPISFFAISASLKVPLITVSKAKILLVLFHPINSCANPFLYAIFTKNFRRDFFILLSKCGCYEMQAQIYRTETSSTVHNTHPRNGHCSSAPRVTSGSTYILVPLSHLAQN

FSHR^F13A = biological target: T4, FSHR^F13A (human, UniProt P23945 18-695)
T4 chain: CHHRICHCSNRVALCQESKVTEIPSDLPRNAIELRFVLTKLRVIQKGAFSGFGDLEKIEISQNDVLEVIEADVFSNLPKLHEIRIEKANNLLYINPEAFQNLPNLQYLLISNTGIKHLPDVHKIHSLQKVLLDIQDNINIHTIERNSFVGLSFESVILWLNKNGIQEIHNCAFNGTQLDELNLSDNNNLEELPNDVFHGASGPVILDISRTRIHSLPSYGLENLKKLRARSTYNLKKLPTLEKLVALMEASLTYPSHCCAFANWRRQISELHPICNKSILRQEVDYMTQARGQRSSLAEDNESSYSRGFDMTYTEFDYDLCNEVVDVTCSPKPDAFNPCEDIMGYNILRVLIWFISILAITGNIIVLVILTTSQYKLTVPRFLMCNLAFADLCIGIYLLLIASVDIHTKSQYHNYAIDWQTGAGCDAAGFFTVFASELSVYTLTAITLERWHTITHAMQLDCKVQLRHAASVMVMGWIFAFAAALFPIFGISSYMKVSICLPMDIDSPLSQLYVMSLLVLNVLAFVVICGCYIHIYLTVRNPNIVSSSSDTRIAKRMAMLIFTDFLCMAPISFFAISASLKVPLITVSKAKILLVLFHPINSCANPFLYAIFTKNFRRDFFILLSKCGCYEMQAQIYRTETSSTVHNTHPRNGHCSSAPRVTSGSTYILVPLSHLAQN

FSHR^S9A = biological target: T5, FSHR^S9A (human, UniProt P23945 18-695)
T5 chain: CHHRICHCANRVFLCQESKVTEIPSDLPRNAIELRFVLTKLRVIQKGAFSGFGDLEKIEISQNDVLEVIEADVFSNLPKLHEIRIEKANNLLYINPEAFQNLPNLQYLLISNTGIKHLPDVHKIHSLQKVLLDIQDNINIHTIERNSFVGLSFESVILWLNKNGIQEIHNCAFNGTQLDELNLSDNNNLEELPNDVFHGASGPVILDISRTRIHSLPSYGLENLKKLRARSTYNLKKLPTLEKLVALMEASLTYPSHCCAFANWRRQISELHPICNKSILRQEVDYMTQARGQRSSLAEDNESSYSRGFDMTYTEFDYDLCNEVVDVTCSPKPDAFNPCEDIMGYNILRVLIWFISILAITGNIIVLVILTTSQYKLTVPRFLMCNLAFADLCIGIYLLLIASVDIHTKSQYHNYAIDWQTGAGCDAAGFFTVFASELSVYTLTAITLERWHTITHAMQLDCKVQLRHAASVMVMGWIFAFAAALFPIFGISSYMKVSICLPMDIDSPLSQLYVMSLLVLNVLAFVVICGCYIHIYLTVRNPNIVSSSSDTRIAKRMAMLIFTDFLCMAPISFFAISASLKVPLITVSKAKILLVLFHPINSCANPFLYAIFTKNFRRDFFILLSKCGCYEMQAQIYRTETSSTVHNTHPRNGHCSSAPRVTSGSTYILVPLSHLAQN

FSHR^V12A = biological target: T6, FSHR^V12A (human, UniProt P23945 18-695)
T6 chain: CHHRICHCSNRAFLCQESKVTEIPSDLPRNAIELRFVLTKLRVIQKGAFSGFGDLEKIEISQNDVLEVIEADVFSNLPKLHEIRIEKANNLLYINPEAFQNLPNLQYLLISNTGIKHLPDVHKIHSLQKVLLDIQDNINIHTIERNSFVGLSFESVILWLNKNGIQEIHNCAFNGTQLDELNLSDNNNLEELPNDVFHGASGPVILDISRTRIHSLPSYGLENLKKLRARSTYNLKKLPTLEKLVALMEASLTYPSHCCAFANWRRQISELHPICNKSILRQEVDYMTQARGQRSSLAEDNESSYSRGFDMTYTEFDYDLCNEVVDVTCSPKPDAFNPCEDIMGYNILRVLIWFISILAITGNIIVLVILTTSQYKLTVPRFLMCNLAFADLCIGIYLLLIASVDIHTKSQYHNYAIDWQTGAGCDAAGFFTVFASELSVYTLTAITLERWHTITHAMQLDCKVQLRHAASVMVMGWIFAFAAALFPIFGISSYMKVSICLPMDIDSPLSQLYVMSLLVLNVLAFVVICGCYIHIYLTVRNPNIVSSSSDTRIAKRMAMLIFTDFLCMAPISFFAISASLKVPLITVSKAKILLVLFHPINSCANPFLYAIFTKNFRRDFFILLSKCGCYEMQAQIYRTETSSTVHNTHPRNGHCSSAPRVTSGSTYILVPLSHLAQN

FSHR^L14A = biological target: T7, FSHR^L14A (human, UniProt P23945 18-695)
T7 chain: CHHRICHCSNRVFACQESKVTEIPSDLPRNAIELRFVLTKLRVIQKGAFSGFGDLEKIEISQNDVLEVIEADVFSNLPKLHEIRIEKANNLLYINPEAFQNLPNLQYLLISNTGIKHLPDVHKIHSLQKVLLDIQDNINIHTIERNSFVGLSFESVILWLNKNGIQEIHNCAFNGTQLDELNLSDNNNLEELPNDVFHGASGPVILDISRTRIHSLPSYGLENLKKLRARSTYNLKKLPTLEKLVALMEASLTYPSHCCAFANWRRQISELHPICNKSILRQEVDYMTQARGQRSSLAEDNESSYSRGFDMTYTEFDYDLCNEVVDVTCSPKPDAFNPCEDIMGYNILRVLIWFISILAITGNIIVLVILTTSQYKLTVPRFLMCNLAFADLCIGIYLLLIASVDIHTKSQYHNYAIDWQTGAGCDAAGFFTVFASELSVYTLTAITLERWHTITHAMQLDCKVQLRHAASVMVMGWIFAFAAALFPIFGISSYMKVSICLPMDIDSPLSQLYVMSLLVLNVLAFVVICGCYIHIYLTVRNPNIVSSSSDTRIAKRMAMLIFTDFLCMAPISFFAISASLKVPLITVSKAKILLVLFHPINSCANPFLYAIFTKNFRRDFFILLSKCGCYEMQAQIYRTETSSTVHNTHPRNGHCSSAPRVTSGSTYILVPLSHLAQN

C = experiment: 125I-FSH displacement, Scatchard
P = experiment: 125I-FSH displacement, Scatchard
D = experiment: 125I-FSH displacement, Scatchard
K590 Q = experiment: 125I-FSH displacement / Scatchard
P582 E = experiment: 125I-FSH displacement / Scatchard
P582 R = experiment: 125I-FSH displacement / Scatchard
P582 C = experiment: 125I-FSH displacement / Scatchard
P582 Y = experiment: 125I-FSH displacement / Scatchard
P582 L = experiment: 125I-FSH displacement / Scatchard
P582 Q = experiment: 125I-FSH displacement / Scatchard
P582 S = experiment: 125I-FSH displacement / Scatchard
P582 D = experiment: 125I-FSH displacement / Scatchard
P582 F = experiment: 125I-FSH displacement / Scatchard

T1 sequence (P22888 27-699): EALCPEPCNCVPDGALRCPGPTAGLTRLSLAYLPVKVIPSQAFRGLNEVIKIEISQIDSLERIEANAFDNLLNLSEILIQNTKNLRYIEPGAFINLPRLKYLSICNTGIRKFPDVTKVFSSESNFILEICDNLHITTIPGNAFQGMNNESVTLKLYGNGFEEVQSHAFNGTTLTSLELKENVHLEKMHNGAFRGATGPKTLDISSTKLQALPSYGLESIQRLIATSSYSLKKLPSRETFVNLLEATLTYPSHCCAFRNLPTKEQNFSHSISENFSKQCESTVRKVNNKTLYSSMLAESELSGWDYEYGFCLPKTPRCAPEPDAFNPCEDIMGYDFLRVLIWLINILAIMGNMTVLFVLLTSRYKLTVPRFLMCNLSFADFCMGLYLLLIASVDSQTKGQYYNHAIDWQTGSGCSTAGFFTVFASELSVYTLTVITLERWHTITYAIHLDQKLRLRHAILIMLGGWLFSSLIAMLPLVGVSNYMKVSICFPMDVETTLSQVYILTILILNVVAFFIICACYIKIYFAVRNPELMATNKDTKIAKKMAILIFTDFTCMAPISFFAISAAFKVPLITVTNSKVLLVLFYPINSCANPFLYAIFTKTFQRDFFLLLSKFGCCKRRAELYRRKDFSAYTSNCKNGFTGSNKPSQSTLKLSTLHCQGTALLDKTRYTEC

Kd [1]: 0.412 nM
Kd [2]: 0.412 nM
B1: hCG (ligand)
chain 1: not shown
chain 2: SKEPLRPRCRPINATLAVEKEGCPVCITVNTTICAGYCPTMTRVLQGVLPALPQVVCNYRDVRFESIRLPGCPRGVNPVVSYAVALSCQCALCRRSTTDCGGPKDHPLTCDDPRFQDSSSSKAPPPSLPSPSRLPGPSDTPILPQ

Kd (FSHR^S18A): 3.64 nM
Kd (FSHR^N10A): 1.56 nM
Kd (FSHR^F13A): 2.56 nM
Kd (FSHR^S9A): 2.78 nM
Kd (FSHR^V12A): 2.53 nM
Kd (FSHR^L14A): 1.37 nM
B2: human FSH (ligand)
chain 1: not shown
chain 2: NSCELTNITIAIEKEECRFCISINTTWCAGYCYTRDLVYKDPARPKIQKTCTFKELVYETVRVPGCAHHADSLYTYPVATQCHCGKCDSDSTDCTVRGLGPSYCSFGEMKE

Kd (C): 3.9 nM
Kd (P): 1.6 nM
Kd (D): 1.2 nM
Kd (K590 Q): 19.6 nM
Kd (P582 E): 6.5 nM
Kd (P582 R): 4.1 nM
Kd (P582 C): 2.4 nM
Kd (P582 Y): 4.3 nM
Kd (P582 L): 1.9 nM
Kd (P582 Q): 6.2 nM
Kd (P582 S): 4.5 nM
Kd (P582 D): 3.6 nM
Kd (P582 F): 4.7 nM
B3: FSH (ligand)
chain 1: not shown
chain 2: NSCELTNITIAIEKEECRFCISINTTWCAGYCYTRDLVYKDPARPKIQKTCTFKELVYETVRVPGCAHHADSLYTYPVATQCHCGKCDSDSTDCTVRGLGPSYCSFGEMKE
